The record followed here is article PMC4855144.

The target of test [1] is GST-Cdc42 constitutively active (CA/Q61L), preloaded with GTPγS (UniProt P60953). Briefly: pull-down; Glutathione-Sepharose beads coated with GST alone or GST-GTPase fusions pre-loaded with GDP (DN) or GTPγS (CA), incubated with lysates of HEK293T cells expressing GFP-CRN7 WT or CRIB mutants; blot with GFP mAb K3-184-2 or anti-N-WASP; ImageJ quantification, input set at 100%.

Test [2] deals with GST-Cdc42 dominant negative (DN/T17N), preloaded with GDP (UniProt P60953). Briefly: GST pull-down, western blot quantified with ImageJ. Conditions: GST-Cdc42 DN on Glutathione-Sepharose beads pre-loaded with GDP; lysates from HEK293T cells; input set at 100%; 3 independent experiments; parent: est. 60; read off a plot.
Test [3] addresses GST-Cdc42 constitutively active (CA/Q61L), preloaded with GTPγS (UniProt P60953). The test can be described thus: GST pull-down, western blot quantified with ImageJ. Conditions: GST-Cdc42 CA on Glutathione-Sepharose beads pre-loaded with GTPγS; lysates from HEK293T cells; input set at 100%; 3 independent experiments; parent: est. 19; read off a plot. (A western blot detects proteins with antibodies after separation by electrophoresis.)

Chain of GST-Cdc42 constitutively active (CA/Q61L), preloaded with GTPγS (P60953 whole entry Q61L, the tested form may be a part): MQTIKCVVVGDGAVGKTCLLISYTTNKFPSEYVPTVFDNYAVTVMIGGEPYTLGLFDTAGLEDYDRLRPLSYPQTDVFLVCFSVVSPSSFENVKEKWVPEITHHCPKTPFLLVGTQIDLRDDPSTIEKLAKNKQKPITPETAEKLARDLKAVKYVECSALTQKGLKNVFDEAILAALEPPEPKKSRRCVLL
Chain of GFP-CRN7 WT (human Coronin7, full length, GFP on its N-terminus) (from UniProt P57737) CT-CRIB L>A; T>A; P>A (… > …); residue numbers not printed (P57737 whole entry, change not shown): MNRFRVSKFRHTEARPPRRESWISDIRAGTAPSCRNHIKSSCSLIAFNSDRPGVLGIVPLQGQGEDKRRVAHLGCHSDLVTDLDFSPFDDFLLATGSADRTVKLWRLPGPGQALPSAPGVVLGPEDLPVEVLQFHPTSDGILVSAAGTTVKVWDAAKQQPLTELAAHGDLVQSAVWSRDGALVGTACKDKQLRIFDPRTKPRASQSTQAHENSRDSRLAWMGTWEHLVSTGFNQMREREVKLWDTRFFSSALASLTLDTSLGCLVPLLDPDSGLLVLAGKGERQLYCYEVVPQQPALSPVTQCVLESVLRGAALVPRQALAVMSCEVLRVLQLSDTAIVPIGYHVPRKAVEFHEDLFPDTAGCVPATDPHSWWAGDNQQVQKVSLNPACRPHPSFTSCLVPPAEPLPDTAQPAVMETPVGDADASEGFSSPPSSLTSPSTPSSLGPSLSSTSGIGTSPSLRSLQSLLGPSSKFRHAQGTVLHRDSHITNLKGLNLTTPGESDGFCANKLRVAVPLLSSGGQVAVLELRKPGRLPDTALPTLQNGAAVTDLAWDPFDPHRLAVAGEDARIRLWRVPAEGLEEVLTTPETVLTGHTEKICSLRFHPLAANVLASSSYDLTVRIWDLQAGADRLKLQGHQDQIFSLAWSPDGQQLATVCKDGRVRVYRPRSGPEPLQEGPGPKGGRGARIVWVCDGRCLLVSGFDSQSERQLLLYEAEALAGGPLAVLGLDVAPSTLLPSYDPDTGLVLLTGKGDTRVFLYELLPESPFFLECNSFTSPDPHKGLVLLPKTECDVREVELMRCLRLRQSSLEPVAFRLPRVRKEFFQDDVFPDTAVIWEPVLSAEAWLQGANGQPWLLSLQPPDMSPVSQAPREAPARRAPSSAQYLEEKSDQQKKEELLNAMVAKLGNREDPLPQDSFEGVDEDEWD
Chain of GFP-CRN7 WT (human Coronin7, full length, GFP on its N-terminus) (from UniProt P57737) NT-CRIB S>A; P>A (… > …); residue numbers not printed (P57737 whole entry, change not shown): as above
Chain of GST-Cdc42 dominant negative (DN/T17N), preloaded with GDP (P60953 whole entry T17N): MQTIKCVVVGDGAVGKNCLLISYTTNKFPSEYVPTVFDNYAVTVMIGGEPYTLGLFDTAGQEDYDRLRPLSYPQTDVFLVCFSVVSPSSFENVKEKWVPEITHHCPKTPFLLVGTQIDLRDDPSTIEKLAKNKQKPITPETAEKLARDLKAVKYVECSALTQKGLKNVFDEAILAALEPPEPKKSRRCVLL

With “GFP-CRN7 WT (human Coronin7, full length, GFP on its N-terminus) (from UniProt P57737 1-925) (natural protein)”, in test [1], the percent of input bound is 30 % of input.

For the substance “GFP-CRN7 WT (human Coronin7, full length, GFP on its N-terminus) (from UniProt P57737) CT-CRIB L>A; T>A; P>A (… > …); residue numbers not printed”, the response in test [2] was 57 % of input; in test [3], 41 % of input.

Regarding “GFP-CRN7 WT (human Coronin7, full length, GFP on its N-terminus) (from UniProt P57737) NT-CRIB S>A; P>A (… > …); residue numbers not printed”, the values for the response in test [2] and in test [3] were 67 % of input and 32 % of input, respectively.
